Data as given in patent publication US20200199204A1.

Columns and labels:
Assay in all cases: cell-based or functional assay
[1] = target: HIV-1 Env of 0260.v5.c36 (HIV-1)
[2] = target: HIV-1 Env of 3016.V5.c36 (HIV-1)
[3] = target: HIV-1 Env of 6405.v4.c34 (HIV-1)
[4] = target: HIV-1 Env of 6535.3 (HIV-1)
[5] = target: HIV-1 Env of 96ZM651.02 (HIV-1)
[6] = target: HIV-1 Env of AC10.29 (HIV-1)
[7] = target: HIV-1 Env of BG505.w6m (HIV-1)
[8] = target: HIV-1 Env of C1080.c3 (HIV-1)
[9] = target: HIV-1 Env of CAAN.A2 (HIV-1)
[10] = target: HIV-1 Env of CAP210.E8 (HIV-1)
[11] = target: HIV-1 Env of CAP244.D3 (HIV-1)
[12] = target: HIV-1 Env of CAP256.PI (HIV-1)
[13] = target: HIV-1 Env of CAP256.SU (HIV-1)
[14] = target: HIV-1 Env of CAP45.G3 (HIV-1)
[15] = target: HIV-1 Env of CM244.ec1 (HIV-1)
[16] = target: HIV-1 Env of CNE3 (HIV-1)
[17] = target: HIV-1 Env of DU156.12 (HIV-1)
[18] = target: HIV-1 Env of DU172.17 (HIV-1)
[19] = target: HIV-1 Env of DU422.01 (HIV-1)
[20] = target: HIV-1 Env of KER2008.12 (HIV-1)
[21] = target: HIV-1 Env of KER2018.11 (HIV-1)
[22] = target: HIV-1 Env of MB201 (HIV-1)
[23] = target: HIV-1 Env of MB539.2B7 (HIV-1)
[24] = target: HIV-1 Env of PVO.04 (HIV-1)
[25] = target: HIV-1 Env of Q168.a2 (HIV-1)
[26] = target: HIV-1 Env of Q23.17 (HIV-1)
[27] = target: HIV-1 Env of Q259.d2.17 (HIV-1)
[28] = target: HIV-1 Env of Q461.e2 (HIV-1)
[29] = target: HIV-1 Env of Q769.d22 (HIV-1)
[30] = target: HIV-1 Env of Q842.d12 (HIV-1)
[31] = target: HIV-1 Env of QH0692.42 (HIV-1)
[32] = target: HIV-1 Env of REJO.67 (HIV-1)
[33] = target: HIV-1 Env of RHPA.7 (HIV-1)
[34] = target: HIV-1 Env of RW020.2 (HIV-1)
[35] = target: HIV-1 Env of SC422.8 (HIV-1)
[36] = target: HIV-1 Env of TH976.17 (HIV-1)
[37] = target: HIV-1 Env of THRO.18 (HIV-1)
[38] = target: HIV-1 Env of TRJO.58 (HIV-1)
[39] = target: HIV-1 Env of TRO.11 (HIV-1)
[40] = target: HIV-1 Env of UG037.8 (HIV-1)
[41] = target: HIV-1 Env of WITO.33 (HIV-1)
[42] = target: HIV-1 Env of ZM109.4 (HIV-1)
[43] = target: HIV-1 Env of ZM135.10a (HIV-1)
[44] = target: HIV-1 Env of ZM197.7 (HIV-1)
[45] = target: HIV-1 Env of ZM214.15 (HIV-1)
[46] = target: HIV-1 Env of ZM233.6 (HIV-1)
[47] = target: HIV-1 Env of ZM249.1 (HIV-1)
[48] = target: HIV-1 Env of ZM53.12 (HIV-1)

## CAP256-VRC26.29 (antibody)
[1]
  IC50 (neutralization, TZM-bl): > 50 µg/mL
[2]
  IC50 (neutralization, TZM-bl): 0.012 µg/mL
[3]
  IC50 (neutralization, TZM-bl): > 50 µg/mL
[4]
  IC50 (neutralization, TZM-bl): > 50 µg/mL
[5]
  IC50 (neutralization, TZM-bl): > 50 µg/mL
[6]
  IC50 (neutralization, TZM-bl): 20.4 µg/mL
[7]
  IC50 (neutralization, TZM-bl): 0.046 µg/mL
[8]
  IC50 (neutralization, TZM-bl): 0.009 µg/mL
[9]
  IC50 (neutralization, TZM-bl): > 50 µg/mL
[10]
  IC50 (neutralization, TZM-bl): < 0.0006 µg/mL
[11]
  IC50 (neutralization, TZM-bl): > 50 µg/mL
[12]
  IC50 (neutralization, TZM-bl): > 50 µg/mL
[13]
  IC50 (neutralization, TZM-bl): < 0.0006 µg/mL
[14]
  IC50 (neutralization, TZM-bl): 0.076 µg/mL
[15]
  IC50 (neutralization, TZM-bl): 1.13 µg/mL
[16]
  IC50 (neutralization, TZM-bl): > 50 µg/mL
[17]
  IC50 (neutralization, TZM-bl): 0.136 µg/mL
[18]
  IC50 (neutralization, TZM-bl): > 50 µg/mL
[19]
  IC50 (neutralization, TZM-bl): 0.072 µg/mL
[20]
  IC50 (neutralization, TZM-bl): 0.684 µg/mL
[21]
  IC50 (neutralization, TZM-bl): < 0.0006 µg/mL
[22]
  IC50 (neutralization, TZM-bl): > 50 µg/mL
[23]
  IC50 (neutralization, TZM-bl): 13.3 µg/mL
[24]
  IC50 (neutralization, TZM-bl): 4 µg/mL
[25]
  IC50 (neutralization, TZM-bl): 0.007 µg/mL
[26]
  IC50 (neutralization, TZM-bl): 0.023 µg/mL
[27]
  IC50 (neutralization, TZM-bl): 0.019 µg/mL
[28]
  IC50 (neutralization, TZM-bl): 2 µg/mL
[29]
  IC50 (neutralization, TZM-bl): > 50 µg/mL
[30]
  IC50 (neutralization, TZM-bl): 1.69 µg/mL
[31]
  IC50 (neutralization, TZM-bl): > 50 µg/mL
[32]
  IC50 (neutralization, TZM-bl): > 50 µg/mL
[33]
  IC50 (neutralization, TZM-bl): > 50 µg/mL
[34]
  IC50 (neutralization, TZM-bl): > 50 µg/mL
[35]
  IC50 (neutralization, TZM-bl): > 50 µg/mL
[36]
  IC50 (neutralization, TZM-bl): > 50 µg/mL
[37]
  IC50 (neutralization, TZM-bl): > 50 µg/mL
[38]
  IC50 (neutralization, TZM-bl): > 50 µg/mL
[39]
  IC50 (neutralization, TZM-bl): > 50 µg/mL
[40]
  IC50 (neutralization, TZM-bl): > 50 µg/mL
[41]
  IC50 (neutralization, TZM-bl): > 50 µg/mL
[42]
  IC50 (neutralization, TZM-bl): > 50 µg/mL
[43]
  IC50 (neutralization, TZM-bl): > 50 µg/mL
[44]
  IC50 (neutralization, TZM-bl): 0.136 µg/mL
[45]
  IC50 (neutralization, TZM-bl): 13.6 µg/mL
[46]
  IC50 (neutralization, TZM-bl): 0.003 µg/mL
[47]
  IC50 (neutralization, TZM-bl): 0.093 µg/mL
[48]
  IC50 (neutralization, TZM-bl): 0.001 µg/mL

## CAP256-VRC26.30 (antibody)
[1]
  IC50 (neutralization, TZM-bl): > 50 µg/mL
[2]
  IC50 (neutralization, TZM-bl): 1.05 µg/mL
[3]
  IC50 (neutralization, TZM-bl): > 50 µg/mL
[4]
  IC50 (neutralization, TZM-bl): > 50 µg/mL
[5]
  IC50 (neutralization, TZM-bl): 37.8 µg/mL
[6]
  IC50 (neutralization, TZM-bl): > 50 µg/mL
[7]
  IC50 (neutralization, TZM-bl): 9.04 µg/mL
[8]
  IC50 (neutralization, TZM-bl): 0.073 µg/mL
[9]
  IC50 (neutralization, TZM-bl): > 50 µg/mL
[10]
  IC50 (neutralization, TZM-bl): < 0.0006 µg/mL
[11]
  IC50 (neutralization, TZM-bl): > 50 µg/mL
[12]
  IC50 (neutralization, TZM-bl): > 50 µg/mL
[13]
  IC50 (neutralization, TZM-bl): < 0.0006 µg/mL
[14]
  IC50 (neutralization, TZM-bl): 0.317 µg/mL
[15]
  IC50 (neutralization, TZM-bl): > 50 µg/mL
[16]
  IC50 (neutralization, TZM-bl): > 50 µg/mL
[17]
  IC50 (neutralization, TZM-bl): 0.848 µg/mL
[18]
  IC50 (neutralization, TZM-bl): > 50 µg/mL
[19]
  IC50 (neutralization, TZM-bl): 0.4 µg/mL
[20]
  IC50 (neutralization, TZM-bl): > 50 µg/mL
[21]
  IC50 (neutralization, TZM-bl): < 0.0006 µg/mL
[22]
  IC50 (neutralization, TZM-bl): > 50 µg/mL
[23]
  IC50 (neutralization, TZM-bl): > 50 µg/mL
[24]
  IC50 (neutralization, TZM-bl): 12.6 µg/mL
[25]
  IC50 (neutralization, TZM-bl): 0.199 µg/mL
[26]
  IC50 (neutralization, TZM-bl): > 50 µg/mL
[27]
  IC50 (neutralization, TZM-bl): 0.107 µg/mL
[28]
  IC50 (neutralization, TZM-bl): > 50 µg/mL
[29]
  IC50 (neutralization, TZM-bl): > 50 µg/mL
[30]
  IC50 (neutralization, TZM-bl): > 50 µg/mL
[31]
  IC50 (neutralization, TZM-bl): > 50 µg/mL
[32]
  IC50 (neutralization, TZM-bl): > 50 µg/mL
[33]
  IC50 (neutralization, TZM-bl): > 50 µg/mL
[34]
  IC50 (neutralization, TZM-bl): > 50 µg/mL
[35]
  IC50 (neutralization, TZM-bl): > 50 µg/mL
[36]
  IC50 (neutralization, TZM-bl): > 50 µg/mL
[37]
  IC50 (neutralization, TZM-bl): > 50 µg/mL
[38]
  IC50 (neutralization, TZM-bl): > 50 µg/mL
[39]
  IC50 (neutralization, TZM-bl): > 50 µg/mL
[40]
  IC50 (neutralization, TZM-bl): > 50 µg/mL
[41]
  IC50 (neutralization, TZM-bl): > 50 µg/mL
[42]
  IC50 (neutralization, TZM-bl): > 50 µg/mL
[43]
  IC50 (neutralization, TZM-bl): > 50 µg/mL
[44]
  IC50 (neutralization, TZM-bl): 1 µg/mL
[45]
  IC50 (neutralization, TZM-bl): > 50 µg/mL
[46]
  IC50 (neutralization, TZM-bl): 0.188 µg/mL
[47]
  IC50 (neutralization, TZM-bl): 0.762 µg/mL
[48]
  IC50 (neutralization, TZM-bl): < 0.0006 µg/mL
